According to patent publication US20060147995A1 (UNILEVER PATENT HOLDINGS B V, published 2006):

Target: T1, bovine serum albumin (bovine, UniProt P02769 25-607)
T1 construct: Unconjugated carrier protein used as a control antigen; also called BSA
Assay: ELISA of soluble HC-V-myc supernatant on immobilised antigens, anti-myc detection
Procedure: Commercially available strains such as TOPIOF (stratagene) and HB2151 (Pharmacia) may alternatively be used. Two transformants of each clone were pre-grown in 10 ml 2TY/Ampicillin/Glucose. After 3-4 hours of growth at 37° C. (OD₆₀₀=0.5), the cells were pelleted by centrifugation and resuspended in 5 ml 2TY/Ampicillin/IPTG (0.1 mM). After 24 hours of incubation at 25° C. the cultures were centrifuged, and the supernatants were analysed for the production of antigen binding activity in essential the same way as described in Example 3. In this case, however, the presence of specifically bound HC-V fragments was detected by incubation with monoclonal anti-myc antibodies, followed by incubation with poly-clonal rabbit-anti-mouse conjugate with alkaline phosphatase.
Another three clones (nR3, nR4 and nR8) were specific for RR6-BSA, but the signals observed were very low. […] This was confirmed by analysis of the supernatants on Western blots (FIG. 3B). The remaining 3 clones (nR6, nR9 and nR10) gave significant signals over background on RR6-BSA, BSA and E3G-OVA (FIG. 3A). It would appear that these three ‘sticky’ clones bind to immobilised proteins in general.

T1 sequence (P02769 25-607 limits assumed): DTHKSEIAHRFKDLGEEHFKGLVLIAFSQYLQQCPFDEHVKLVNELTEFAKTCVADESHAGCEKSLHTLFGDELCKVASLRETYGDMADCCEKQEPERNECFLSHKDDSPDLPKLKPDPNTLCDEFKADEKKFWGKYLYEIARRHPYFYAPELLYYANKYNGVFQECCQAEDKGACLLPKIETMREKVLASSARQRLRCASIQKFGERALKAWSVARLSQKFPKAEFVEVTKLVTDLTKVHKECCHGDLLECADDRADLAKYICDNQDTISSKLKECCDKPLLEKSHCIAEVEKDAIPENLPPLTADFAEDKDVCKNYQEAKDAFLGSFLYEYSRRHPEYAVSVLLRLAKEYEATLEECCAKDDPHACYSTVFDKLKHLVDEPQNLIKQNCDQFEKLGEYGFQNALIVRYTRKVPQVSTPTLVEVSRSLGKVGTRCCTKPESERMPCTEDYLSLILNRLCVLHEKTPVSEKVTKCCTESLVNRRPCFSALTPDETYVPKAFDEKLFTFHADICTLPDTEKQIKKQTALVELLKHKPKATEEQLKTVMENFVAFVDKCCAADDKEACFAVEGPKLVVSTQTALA

binding result: no binding
B1: nR11 (VHH)
VHH: QVQLQESGGGLVQPGDFVRLSCAASRRASSTYAVGWFRQAPGKEREFVGRIHRGGGSTYYADSVKGRFTISRDNTQNTVYLQMNSLKPEDTAVYYCNVRSYWGQGTQVTVSS
notes: Llama HC-V tested as soluble HC-V-myc in crude culture supernatant; also called anti-RR6 HC-V fragment nR11; HC-V-myc
